This is an account of results in patent US20040146511A1.

One assay addresses human Factor IX (human) (UniProt P00740). Kind of assay: cell-based or functional assay.
Assay [1] deals with Recombinant human Factor IX (rhFIX, Genetics Institute) (human) (UniProt P00740). Kind of assay: titration microcalorimetry; 106 uM FIX injected into 2 uM mAb.
Sequence of Recombinant human Factor IX (rhFIX, Genetics Institute) (human) (P00740 47-461 limits assumed): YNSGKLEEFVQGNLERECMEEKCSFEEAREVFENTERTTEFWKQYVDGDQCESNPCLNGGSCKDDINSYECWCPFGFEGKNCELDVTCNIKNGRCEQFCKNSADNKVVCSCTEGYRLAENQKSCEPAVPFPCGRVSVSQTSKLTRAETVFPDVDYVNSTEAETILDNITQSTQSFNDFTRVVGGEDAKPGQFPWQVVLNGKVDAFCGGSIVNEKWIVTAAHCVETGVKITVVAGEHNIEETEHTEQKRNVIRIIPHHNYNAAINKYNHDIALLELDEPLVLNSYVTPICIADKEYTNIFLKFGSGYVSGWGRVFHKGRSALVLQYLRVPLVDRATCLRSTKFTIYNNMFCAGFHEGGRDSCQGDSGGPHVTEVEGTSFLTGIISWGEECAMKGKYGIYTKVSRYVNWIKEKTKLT

Sequence of human Factor IX (human) (P00740 47-461 limits assumed): as above

B1: murine anti-Factor IX monoclonal antibody BC2 (antibody, from a related filing, mouse IgG2a, V domains shown)
VH: QIQLVQSGPELKKPGETVKISCKASGYTFTNYGMNWVKQAPGKGLKWMGWINTRNGKSTYVDDFKGRFAFSLESSASTANLQIDNLKDEDTATYFCTREGNMDGYFPFTYWGQGTLVTVSA
VL: QIVLSQSPAILSASPGEKVTMTCRASSSVNYMHWYQQKPGSSPKPWIYATSNLASGVPARFSGSGSGTSYSLTISRVEAEDAATYYCQQWSINPRTFGGGTKLEIKR
Regarding B1, in the assay with human Factor IX (human), the aPTT at saturating concentrations is 90 s and the aPTTmax/aPTTnormal x 100 % came out at 350%.

B2: humanized anti-Factor IX monoclonal antibody SB 249417 (antibody, V domains shown)
VH: QVQLVQSGSELKKPGASVKVSCKASGYTFTNYGMNWVRQAPGQGLKWMGWINTRNGKSTYVDDFKGRFVFSLDSSVSTAYLQISSLKADDTAVYYCTREGNMDGYFPFTYWGQGTLVTVSS
VL: QIVLTQSPSSLSASVGDRVTITCRASSSVNYMHWYQQKPGKAPKPWIYATSNLASGVPSRFSGSGSGTDYTFTISSLQPEDIATYYCQQWSINPRTFGQGTKVEIKR
In the case of B2, in assay [1], the molar binding ratio (FIX per mAb) amounted to 2 FIX per mAb.
